What all share (experiment): two-hybrid library CCmax;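 further: natural log of median RNA to DNA barcode read ratio; higher means stronger binding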
One test has as its target T1, P6-AA-12HGe-A.
T1 chain: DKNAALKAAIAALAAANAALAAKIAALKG
The note with it: mean of both orientations.

The next test concerns the target T2, P6-AA-12HGe-D.
T2 chain: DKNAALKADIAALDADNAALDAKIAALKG
The note with it: mean of both orientations.

The target in the next test is T3, P6-AA-12HGe-H.
T3 chain: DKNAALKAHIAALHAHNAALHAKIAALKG
The following applies: mean of both orientations.

A further test has as its target T4, P6-AA-12HGe-K.
T4 chain: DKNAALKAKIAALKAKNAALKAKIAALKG
The following applies: mean of both orientations.

In a further test the target is T5, P6-AA-12HGe-M.
T5 chain: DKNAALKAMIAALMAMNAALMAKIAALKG
The following applies: mean of both orientations.

For another test, the target named is T6, P6-AA-12HGe-Q.
T6 chain: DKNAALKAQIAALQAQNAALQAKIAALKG
The following applies: mean of both orientations.

The next test addresses T7, P6-AA-12HGe-R.
T7 chain: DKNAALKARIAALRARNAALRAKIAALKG
The note with it: mean of both orientations.

The target of a further test is T8, P6-AA-12HGe-S.
T8 chain: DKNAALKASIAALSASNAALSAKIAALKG
The following applies: mean of both orientations.

For the next test, the target named is T9, P6-AA-12HGe-T.
T9 chain: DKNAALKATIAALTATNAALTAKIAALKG
The note with it: mean of both orientations.

A further test deals with T10, P6-AA-12HGe-W.
T10 chain: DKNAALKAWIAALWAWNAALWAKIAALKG
The following applies: mean of both orientations.

In the next test the target is T11, AP5-AA.
T11 chain: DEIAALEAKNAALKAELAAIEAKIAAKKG

For a further test, the target named is T12, AP6-AA.
T12 chain: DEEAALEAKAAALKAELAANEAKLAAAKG
The following applies: mean of both orientations.

The target of the next test is T13, AP7-AA.
T13 chain: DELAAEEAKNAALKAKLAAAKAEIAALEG
The note with it: mean of both orientations.

The target in the next test is T14, AP8-AA.
T14 chain: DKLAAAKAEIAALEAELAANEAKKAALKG
The following applies: mean of both orientations.

In a further test the target is GCN2_T.
In a further test the target is T15, P1-AA.
T15 chain: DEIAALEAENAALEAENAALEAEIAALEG
The note with it: mean of both orientations.

Another test has as its target T16, P10-AA.
T16 chain: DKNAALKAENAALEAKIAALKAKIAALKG
The note with it: mean of both orientations.

In a further test the target is T17, P11-AA.
T17 chain: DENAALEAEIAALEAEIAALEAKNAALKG
The following applies: mean of both orientations.

In another test the target is T18, P12-AA.
T18 chain: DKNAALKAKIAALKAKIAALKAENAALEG
The note with it: mean of both orientations.

A further test addresses T19, P2-AA.
T19 chain: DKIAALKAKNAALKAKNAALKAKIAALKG
The note with it: mean of both orientations.

A further test addresses T20, P3-AA.
T20 chain: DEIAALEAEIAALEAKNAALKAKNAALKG
The following applies: mean of both orientations.

Another test addresses T21, P4-AA.
T21 chain: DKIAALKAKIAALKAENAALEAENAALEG
The note with it: mean of both orientations.

In another test the target is T22, P7-AA.
T22 chain: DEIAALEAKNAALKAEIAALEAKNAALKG
The following applies: mean of both orientations.

Another test has as its target T23, P8-AA.
T23 chain: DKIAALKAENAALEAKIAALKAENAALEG
The note with it: mean of both orientations.

The target of a further test is T24, P9-AA.
T24 chain: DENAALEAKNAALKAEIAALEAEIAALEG
The following applies: mean of both orientations.

Another test deals with T25, P2-AA-12HGe-A.
T25 chain: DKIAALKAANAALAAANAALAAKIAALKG
The note with it: mean of both orientations.

For another test, the target named is T26, P2-AA-12HGe-D.
T26 chain: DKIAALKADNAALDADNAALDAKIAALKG
The following applies: mean of both orientations.

In a further test the target is T27, P2-AA-12HGe-E.
T27 chain: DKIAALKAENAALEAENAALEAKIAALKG
The following applies: mean of both orientations.

A further test deals with T28, P2-AA-12HGe-H.
T28 chain: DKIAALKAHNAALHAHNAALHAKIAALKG
The following applies: mean of both orientations.

The target of another test is T29, P2-AA-12HGe-M.
T29 chain: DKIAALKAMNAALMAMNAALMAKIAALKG
The following applies: mean of both orientations.

Another test addresses T30, P2-AA-12HGe-Q.
T30 chain: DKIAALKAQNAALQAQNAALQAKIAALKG
The following applies: mean of both orientations.

The target of a further test is T31, P2-AA-12HGe-R.
T31 chain: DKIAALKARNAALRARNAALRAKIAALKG
The note with it: mean of both orientations.

The target of the next test is T32, P2-AA-12HGe-S.
T32 chain: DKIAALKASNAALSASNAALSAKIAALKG
The following applies: mean of both orientations.

For the next test, the target named is T33, P2-AA-12HGe-T.
T33 chain: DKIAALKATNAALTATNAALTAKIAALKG
The note with it: mean of both orientations.

A further test deals with T34, P2-AA-12HGe-W.
T34 chain: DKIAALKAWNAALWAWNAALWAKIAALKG
The note with it: mean of both orientations.

For DENAALEAEIAALEAENAALEAEIAALEG [P5-AA-12HGe-E], the interaction score is 1.23 in the test with P6-AA-12HGe-A; -1.51 with P6-AA-12HGe-D; 2.11 with P6-AA-12HGe-H; 1.8 with P6-AA-12HGe-K; 0.542 with P6-AA-12HGe-M; 2.02 with P6-AA-12HGe-Q. Moreover, the interaction score with P6-AA-12HGe-R is 1.58; with P6-AA-12HGe-S, -0.0947; in the test with P6-AA-12HGe-T it was 0.892; in the test with P6-AA-12HGe-W, -0.981.

Turning to DEIAALEAKNAALKAELAAIEAKIAAKKG [AP5-AA], the interaction score with AP5-AA is -0.918; with AP6-AA, 1.53; with AP7-AA it was -1.69; with AP8-AA, -1.08; with GCN2_T, -0.794; with P1-AA, -1.35. For the same molecule, the interaction score was 1.37 with P10-AA; -0.907 in the test with P11-AA; -1.41 in the test with P12-AA; -1.24 with P2-AA; -1.62 in the test with P3-AA; -0.912 with P4-AA. Also, the interaction score with P7-AA is -0.672; with P8-AA, 2.11; in the test with P9-AA, -0.644.

Turning to DEIAALEAHNAALHAHNAALHAEIAALEG [P1-AA-12HGe-H], the interaction score in the test with P2-AA-12HGe-A is 0.105; with P2-AA-12HGe-D, -1.6; with P2-AA-12HGe-E, 2; in the test with P2-AA-12HGe-H it was -1.82; with P2-AA-12HGe-M, -0.622; with P2-AA-12HGe-Q it was 0.16. In addition, the interaction score was -1.54 in the test with P2-AA-12HGe-R; -1.37 in the test with P2-AA-12HGe-S; -1.51 with P2-AA-12HGe-T; -1.45 with P2-AA-12HGe-W; -1.14 with P2-AA.

Take DENAALEAYIAALYAYNAALYAEIAALEG [P5-AA-12HGe-Y]: the interaction score with P6-AA-12HGe-A is -0.307; with P6-AA-12HGe-D, -1.93; with P6-AA-12HGe-H, -0.445; in the test with P6-AA-12HGe-K, -0.203; with P6-AA-12HGe-M, 0.0241; with P6-AA-12HGe-Q, 0.323. Further, the interaction score with P6-AA-12HGe-R was -0.752; in the test with P6-AA-12HGe-S it was -1.51; with P6-AA-12HGe-T it was -0.218; with P6-AA-12HGe-W it was -0.852.

Take DEIAALEAKNAALKAKNAALKAEIAALEG [P1-AA-12HGe-K]: the interaction score was 1.6 with P2-AA-12HGe-A; 0.189 in the test with P2-AA-12HGe-D; 2.31 with P2-AA-12HGe-E; -1.62 with P2-AA-12HGe-H; 0.464 with P2-AA-12HGe-M; 1.06 in the test with P2-AA-12HGe-Q. The interaction score with P2-AA-12HGe-R was -1.01; with P2-AA-12HGe-S, 0.655; with P2-AA-12HGe-T, -0.493; with P2-AA-12HGe-W, -2.11; with P2-AA, -0.289.

DENAALEADIAALDADNAALDAEIAALEG [P5-AA-12HGe-D]: the interaction score in the test with P6-AA-12HGe-A was -1.85; in the test with P6-AA-12HGe-D, -1.85; in the test with P6-AA-12HGe-H, -2.35; in the test with P6-AA-12HGe-K, -0.581; with P6-AA-12HGe-M, -2.09; with P6-AA-12HGe-Q, -1.56. The interaction score was -0.833 with P6-AA-12HGe-R, -2.03 in the test with P6-AA-12HGe-S, -1.98 with P6-AA-12HGe-T and -1.67 in the test with P6-AA-12HGe-W.

For DENAALEARIAALRARNAALRAEIAALEG [P5-AA-12HGe-R], the interaction score in the test with P6-AA-12HGe-A was 0.13; with P6-AA-12HGe-D, -0.685; with P6-AA-12HGe-H, -1.35; in the test with P6-AA-12HGe-K it was -0.748; with P6-AA-12HGe-M, -0.376; in the test with P6-AA-12HGe-Q, 1.15. The interaction score in the test with P6-AA-12HGe-R was -1.36; in the test with P6-AA-12HGe-S it was -0.593; with P6-AA-12HGe-T, -0.204; in the test with P6-AA-12HGe-W, -1.7.

Consider DENAALEAAIAALAAANAALAAEIAALEG [P5-AA-12HGe-A], for which the interaction score with P6-AA-12HGe-A is -0.0358; with P6-AA-12HGe-D, -1.87; with P6-AA-12HGe-H, -0.816; with P6-AA-12HGe-K, 0.623; in the test with P6-AA-12HGe-M, 0.58; in the test with P6-AA-12HGe-Q, 1.38. Also, the interaction score with P6-AA-12HGe-R was 0.304; with P6-AA-12HGe-S, -1.02; with P6-AA-12HGe-T, -0.125; with P6-AA-12HGe-W, -0.644.

On to DENAALEAWIAALWAWNAALWAEIAALEG [P5-AA-12HGe-W], for which the interaction score in the test with P6-AA-12HGe-A was -0.131; in the test with P6-AA-12HGe-D, -1.67; with P6-AA-12HGe-H, -1.46; with P6-AA-12HGe-K, -2.03; in the test with P6-AA-12HGe-M it was 0.011; with P6-AA-12HGe-Q, 0.162. Besides, the interaction score with P6-AA-12HGe-R is -1.34; with P6-AA-12HGe-S it was -0.198; with P6-AA-12HGe-T, -0.564; with P6-AA-12HGe-W, -1.05.

With DENAALEASIAALSASNAALSAEIAALEG [P5-AA-12HGe-S], the interaction score with P6-AA-12HGe-A is -1.21; with P6-AA-12HGe-D, -1.45; with P6-AA-12HGe-H it was -1.52; with P6-AA-12HGe-K, -0.261; in the test with P6-AA-12HGe-M, -1.66; in the test with P6-AA-12HGe-Q it was -0.404. The interaction score was -0.734 with P6-AA-12HGe-R, -2.05 in the test with P6-AA-12HGe-S, -1.05 with P6-AA-12HGe-T and -1.53 in the test with P6-AA-12HGe-W.

On to DENAALEATIAALTATNAALTAEIAALEG [P5-AA-12HGe-T], for which the interaction score with P6-AA-12HGe-A was -0.0467; in the test with P6-AA-12HGe-D, -1.71; with P6-AA-12HGe-H, -1.26; in the test with P6-AA-12HGe-K it was 0.446; in the test with P6-AA-12HGe-M it was -0.283; in the test with P6-AA-12HGe-Q, 1.22. Also, the interaction score is 0.245 in the test with P6-AA-12HGe-R, -1.32 in the test with P6-AA-12HGe-S, -0.438 in the test with P6-AA-12HGe-T and -1.07 in the test with P6-AA-12HGe-W.

For the molecule DENAALEAHIAALHAHNAALHAEIAALEG [P5-AA-12HGe-H], the interaction score in the test with P6-AA-12HGe-A is -1.29; with P6-AA-12HGe-D it was -1.79; with P6-AA-12HGe-H, -1.62; with P6-AA-12HGe-K, -1.26; with P6-AA-12HGe-M it was -1.41; in the test with P6-AA-12HGe-Q, -0.057. Further, the interaction score was -1.38 with P6-AA-12HGe-R, -2 in the test with P6-AA-12HGe-S, -1.15 with P6-AA-12HGe-T and -2.54 with P6-AA-12HGe-W.
